In patent US20200231671A1 (E R SQUIBB AND SONS L L C, published 2020):

Assays:
[1] = target: T1, human LAG-3 full-length extra loop peptide (human, conjugated to biotin); assay: ELISA on human full-length extra loop peptide
T1 construct: Exposed extra loop of the immunoglobulin-like first extracellular domain of LAG-3; also called LAG-3 extra loop
T1 peptide: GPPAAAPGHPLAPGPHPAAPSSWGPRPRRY
Procedure: (§1) To further examine binding of these antibodies to the extra loop peptide region, additional ELISA assays were performed. In an ELISA assay using the human full-length extra loop peptide (SEQ ID NO: 79), EC₅₀ values for binding were determined for 25E3, 25F7 and 8B7. Additionally, a similar peptide ELISA was conducted using the full length extra loop peptide sequence from rhesus monkey LAG-3, having the sequence […] (SEQ ID NO: 90), and EC₅₀ values for binding were determined for 25F7 and 8B7. […] Moreover, antibodies 25F7 and 8B7 also bind to the rhesus LAG-3 extra loop peptide region, albeit less well compared to the human sequence, which may be due to the species sequence divergence in this polypeptide. The results also confirm that the 26H10 antibody is not capable of recognizing the LAG-3 extra loop peptide.

[2] = target: T2, mouse LAG-3 (cell surface, 3A9 mouse T cell hybridoma) (mouse, UniProt Q61790 24-521); assay: flow cytometry, 3A9 cells transfected with mouse LAG-3
T2 construct: whole, on cells; also called mLAG-3
T2 sequence (looked up): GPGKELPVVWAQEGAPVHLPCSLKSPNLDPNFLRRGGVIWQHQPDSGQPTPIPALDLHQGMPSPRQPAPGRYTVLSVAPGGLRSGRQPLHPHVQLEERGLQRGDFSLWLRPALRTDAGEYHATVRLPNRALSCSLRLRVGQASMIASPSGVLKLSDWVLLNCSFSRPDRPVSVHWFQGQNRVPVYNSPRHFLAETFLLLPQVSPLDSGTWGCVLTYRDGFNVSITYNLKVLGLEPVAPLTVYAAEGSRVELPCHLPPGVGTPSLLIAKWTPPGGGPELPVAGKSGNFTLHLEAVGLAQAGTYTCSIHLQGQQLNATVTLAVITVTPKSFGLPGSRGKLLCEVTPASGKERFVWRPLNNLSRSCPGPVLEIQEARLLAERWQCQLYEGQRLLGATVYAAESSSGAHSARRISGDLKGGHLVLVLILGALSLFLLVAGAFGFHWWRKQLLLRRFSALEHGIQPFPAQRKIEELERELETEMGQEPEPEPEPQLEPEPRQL
Procedure: To determine whether the antibodies cross-reacted with mouse LAG-3, similar flow cytometry studies to those described above were performed using as the target cell a mouse T cell hybridoma cell line (3A9) that had been transfected to express mouse LAG-3 on its cell surface, followed by FACS analysis to detect antibody binding.

[3] = target: T3, recombinant human LAG-3 fusion protein (human, UniProt P18627 23-450); assay: BIAcore, antibody captured on anti-CH1, 20 nM LAG-3 fusion protein injected
T3 construct: also called recombinant LAG-3 protein
T3 sequence (looked up): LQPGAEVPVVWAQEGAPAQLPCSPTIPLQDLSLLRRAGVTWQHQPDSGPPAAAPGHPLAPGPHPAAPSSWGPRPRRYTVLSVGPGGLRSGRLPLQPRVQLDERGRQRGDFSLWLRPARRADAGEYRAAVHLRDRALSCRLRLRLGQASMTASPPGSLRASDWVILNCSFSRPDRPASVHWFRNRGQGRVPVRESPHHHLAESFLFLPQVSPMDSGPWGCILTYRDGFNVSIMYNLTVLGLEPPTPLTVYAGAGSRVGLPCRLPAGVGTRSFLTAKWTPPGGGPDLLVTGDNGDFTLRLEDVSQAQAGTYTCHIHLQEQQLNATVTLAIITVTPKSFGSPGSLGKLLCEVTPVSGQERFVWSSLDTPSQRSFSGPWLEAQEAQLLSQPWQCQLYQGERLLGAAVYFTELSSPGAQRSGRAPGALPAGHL
Procedure: The binding of the 25E3, 25F7, 8B7, 26H10 and 17E5 antibodies to recombinant LAG-3 protein was examined by BIAcore™ using a capture method. The 25E3, 25F7, 8B7, 26H10 and 17E5 antibodies each were captured using anti-CH1, a reagent antibody that is specific towards the heavy chain constant region 1 of human antibody (Zymed, Clone HP6045, Stock conc. 1.0 mg/mL). Anti-CH1 was coated on a CMS chip (BR-1000-14, Research Grade) at high density (9700-11500RUs). The coating was carried out based on the standard immobilization procedure recommended by the manufacturer. The 25E3, 25F7, 8B7, 26H10 or 17E5 purified antibody, with concentrations ranging from 0.5-3 μg/mL, was then captured on the anti-CH1 coated surface at the flow-rate of 10 uL/min for 1 minute. A single concentration of recombinant human LAG-3 fusion protein (20 nM) was injected over captured antibody for 3 minutes at a flow rate of […]. The antigen was allowed to dissociate for 7.5 minutes. The chip surface was regenerated after each cycle with 25 μL, of 25 mM NaOH followed by 30 μL of HBS-EP wash. Isotype controls were run on the chip, and the data used to subtract non-specific binding. All the experiments were carried out on a Biacore 3000 surface plasmon resonance instrument, using BIAcore Control software v 3.2. Data analysis was carried out using BiaEvaluation v3.2 software. The BIAcore results for 25E3, 25F7, 8B7, 26H10 and 17E5 confirm the flow cytometry results that all five antibodies are capable of binding with high affinity to human LAG-3.

[4] = target: T4, rhesus monkey LAG-3 full length extra loop peptide (rhesus monkey); assay: ELISA on rhesus full length extra loop peptide
T4 construct: Used in a 'similar peptide ELISA'; Biotinylation is not restated for this peptide; also called Rhesus Extra Loop
T4 peptide: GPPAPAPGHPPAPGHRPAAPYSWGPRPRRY
Procedure: as §1

[5] = target: T5, cynomolgus monkey LAG-3 on activated cynomolgus monkey T cells (cynomolgus monkey); assay: flow cytometry, activated cynomolgus CD4+ T cells
T5 construct: whole, on cells
Procedure: To test the ability of the antibodies to bind to native human LAG-3 on the surface of activated human T cells, resting CD4⁺ T cells were isolated from purified peripheral blood mononuclear cells and subjected to three days of stimulation with a combination of anti-CD3 and anti-CD28 antibodies affixed to polystyrene beads. The 25F7, 8B7 and 26H10 monoclonal antibodies were serially diluted with cold 1×PFAE buffer (1×PBS+2% FBS, 0.02% sodium azide, 2 mM Na EDTA). For the binding reaction, 50 μl of diluted antibody solution was mixed with 50 μl of PE-labeled anti-human CD4 (BD Bioscience, Cat # 555347). Activated T cells were processed by the same protocol described above. The analysis of antibody binding was conducted as described above.
In a separate experiment, the antibodies were tested for binding to cynomolgus monkey LAG-3 using activated cynomolgus monkey T cells. In vitro activation of these monkey T cells was achieved through anti-CD³/anti-CD28 treatment of the T cells by essentially the same protocol described above for the in vitro activation of human T cells, followed by flow cytometry analysis performed as described above for staining of in vitro activated human CD4⁺ T cells.

B1: 25E3 human monoclonal antibody (antibody, IgG1, V domains shown)
VH: EVQLVESGGGVVRPGGSLRLSCAASGFTFDDYGMSWVRQAPGKGLEWVSGINWNGGSTYYADSVKGRFTISGDNAKNSLYLQMNSLRAEDTALYYCTTGGYWGQGTLVTVSS
VL: AIQLTQSPSSLSASVGDRVTITCRASQGIRSALAWYQQKPGKAPKLLIYDASSLESGVPSRFSGSGSGTDFTLTISSLQPEDFATYYCQQFNSYPYTFGQGTKLEIK
[1]
  EC50: 0.55 nM
[2]
  binding result: no binding
[3]
  Kd: 0.09 nM

B2: 26H10 human monoclonal antibody (antibody, IgG1, V domains shown)
VH: QVQLVESGGGVVQPGRSLRLSCAASGFTFSSYGMHWVRQAPGKGLEWVAVIWYDGSNKYYADSVKGRFTISRDNSKNTLYLQMNSLRAEDTAVYYCAREWAVASWDYGMDVWGQGTTVTVSS
VL: not shown
notes: also called 26H10-FITC
[1]
  binding result: no binding
[4]
  binding result: no binding
[5]
  EC50: 5.19 nM
[2]
  binding result: no binding
[3]
  Kd: 0.1 nM

B3: 25F7 human monoclonal antibody (antibody, IgG1, V domains shown)
VH: QVQLQQWGAGLLKPSETLSLTCAVYGGSFSDYYWNWIRQPPGKGLEWIGEINHNGNTNSNPSLKSRVTLSLDTSKNQFSLKLRSVTAADTAVYYCAFGYSDYEYNWFDPWGQGTLVTVSS
VL: EIVLTQSPATLSLSPGERATLSCRASQSISSYLAWYQQKPGQAPRLLIYDASNRATGIPARFSGSGSGTDFTLTISSLEPEDFAVYYCQQRSNWPLTFGQGTNLEIK
notes: also called 25F7-FITC (IgG1 version)
[1]
  EC50: 0.29 to 0.95 nM
[4]
  EC50: 13.1 nM
[5]
  EC50: 14.2 nM
[2]
  binding result: no binding
[3]
  Kd: 0.47 nM

B4: 8B7 human monoclonal antibody (antibody, IgG4, V domains shown)
VH: QVQLQQWGAGLLKPSETLSLTCAVYGGSFSGYYWSWIRQPPGKGLEWIGEINHRGNTNCNPSLKSRVTISGDTSKKQFALKLNSVTAADTAVYYCARGYDILTGYYEDSWGPGTLVTVSS
VL: EIVLTQSPATLSLSPGERATLSCRASQSVSSYLAWYQQKPGQAPRLLIYNASNRATGIPARFSGSGSGTDFTLTISSLEPEDFAVYYCQQRSNWPLTFGGGTKVEIK
notes: also called 8B7-FITC
[1]
  EC50: 0.28 to 1.35 nM
[4]
  EC50: 0.6 nM
[5]
  EC50: 30.4 nM
[2]
  binding result: no binding
[3]
  Kd: 0.09 nM
